Source: article PMC3497731 (Bioscience Reports, 2012)
Values joined by “and” are separate entries in the source; they are usually repeats but may differ in a detail not shown here. Equal values may be shown once.

Tests used:
[1] = target: adiponectin secreted from isolated rat primary adipocytes (rat (endogenous in primary adipocytes)); experiment: native gel or EMSA
[2] = target: the molecule itself; experiment: non-reducing denaturing SDS/PAGE
native gel or EMSA [3] = target: the molecule itself; experiment: native gel or EMSA
native gel or EMSA [4] = target: the molecule itself; experiment: native gel or EMSA; remark: listed apart in the source
SEC = target: the molecule itself; experiment: SEC

adiponectin secreted from isolated rat primary adipocytes (natural protein)
stoichiometry N [1]: 6 and 3

B1: FLAG epitope-tagged mouse adiponectin (natural protein, UniProt Q60994 18-247, looked up)
chain: EDDVTTTEELAPALVPPPKGTCAGWMAGIPGHPGHNGTPGRDGRDGTPGEKGEKGDAGLLGPKGETGDVGMTGAEGPRGFPGTPGRKGEPGEAAYVYRSAFSVGLETRVTVPNVPIRFTKIFYNQQNHYDGSTGKFYCNIPGLYYFSYHITVYMKDVKVSLFKKDKAVLFTYDQYQEKNVDQASGSVLLHLEVGDQVWLQVYGDGDHNGLYADNVNDSTFTGFLLYHDTN
stoichiometry N [2]: 2 | stoichiometry N (native gel or EMSA [3]): 6 and 3

B2: adiponectin of differentiated 3T3-L1 adipocytes (natural protein, mouse (endogenous in 3T3-L1), UniProt Q60994 18-247, looked up)
chain: B1 chain
stoichiometry N (native gel or EMSA [4]): 6 and 3

B3: adiponectin purified from bovine serum (natural protein, UniProt Q3Y5Z3 18-240, looked up)
chain: EDNMEDPPLPKGACAGWMAGIPGHPGHNGTPGRDGRDGTPGEKGEKGDPGLVGPKGDTGETGITGIEGPRGFPGTPGRKGEPGESAYVYRSAFSVGLERQVTVPNVPIRFTKIFYNQQNHYDGTTGKFLCNIPGLYYFSYHITVYLKDVKVSLYKNDKALLFTHDQFQDKNVDQASGSVLLYLEKGDQVWLQVYEGENHNGVYADNVNDSTFTGFLLYHNIVE
stoichiometry N (SEC): 6
